The record followed here is US20230365662A1.

Where a chain is given by its changes, count along the chain named. Names may count otherwise. “And” between values parts separate entries of the source, which are not always exact repeats. Equal values may be shown once.

The experiment deals with HRgpA-6H (Porphyromonas gingivalis) (UniProt P28784). Put plainly: ELISA on coated HRgpA-6H. (In general: An ELISA detects its analyte on a solid surface through an enzyme-linked reagent.)
Chain of UniProt P28784 (P28784 228-991 limits assumed): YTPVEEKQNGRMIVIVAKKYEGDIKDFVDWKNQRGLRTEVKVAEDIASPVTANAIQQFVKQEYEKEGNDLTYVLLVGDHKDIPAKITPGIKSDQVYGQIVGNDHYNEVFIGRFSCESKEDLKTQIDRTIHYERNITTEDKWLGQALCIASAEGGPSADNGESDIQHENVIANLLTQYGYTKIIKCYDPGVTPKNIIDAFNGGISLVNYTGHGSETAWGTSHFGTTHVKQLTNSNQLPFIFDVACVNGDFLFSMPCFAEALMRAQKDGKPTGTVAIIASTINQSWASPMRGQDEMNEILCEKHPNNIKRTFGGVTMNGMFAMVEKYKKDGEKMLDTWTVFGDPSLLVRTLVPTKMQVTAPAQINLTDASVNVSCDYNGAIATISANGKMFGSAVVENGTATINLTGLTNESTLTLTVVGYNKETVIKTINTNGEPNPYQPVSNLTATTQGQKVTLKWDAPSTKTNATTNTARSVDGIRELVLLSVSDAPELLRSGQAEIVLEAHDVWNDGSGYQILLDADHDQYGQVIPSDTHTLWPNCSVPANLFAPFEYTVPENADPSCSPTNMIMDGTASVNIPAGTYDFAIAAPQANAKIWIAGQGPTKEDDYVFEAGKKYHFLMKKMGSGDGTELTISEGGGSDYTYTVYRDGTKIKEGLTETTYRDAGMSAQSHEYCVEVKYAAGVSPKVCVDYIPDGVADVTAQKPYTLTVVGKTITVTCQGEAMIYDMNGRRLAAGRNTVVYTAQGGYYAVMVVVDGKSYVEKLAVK

B1: KB001 mouse Fab FASEBA VH S28R (Fab, V domains shown)
VH: EVQLKQSGPGLVAPSQSLSITCTVSGFRLSIYSVHWVRQPPGKGLEWLGMIWGGGSSDYNSALKSRLSISKDNSKSQVFLKMNSLQTDDTAMYYCARNGNFYAMDYWGQGTSVTVSS
VL: QIVLTQSPAIMSASLGERVTMTCTASSSVSSSFLHWYQQKPGSSPQLWIYSTSNLASGVPARFSGSGSGTSYSLTISSMEAEDAATYYCHQYHHSPYIYTFGGGTKLEIK
Consider B1, for which the OD450nm was found to be 0.458 and the Ratio OD(Variant)/OD(WT) was determined as 0.848.

B2: KB001 mouse Fab FASEBA VH S28N (Fab, V domains shown)
VH: B1 VH with R28N
VL: B1 VL
For the molecule B2, the OD450nm is 0.53 and the Ratio OD(Variant)/OD(WT) stood at 0.981.

B3: KB001 mouse Fab FASEBA VH S30K (Fab, V domains shown)
VH: B1 VH with R28S, S30K
VL: B1 VL
Take B3: the OD450nm was 0.46 and 0.467 and 0.493; the Ratio OD(Variant)/OD(WT) was 0.912 and 0.926 and 0.977.

B4: KB001 mouse Fab FASEBA VH L29T (Fab, V domains shown)
VH: B1 VH with R28S, L29T
VL: B1 VL
For B4, the OD450nm was 0.502 and 0.512 and 0.501; the Ratio OD(Variant)/OD(WT) was 0.93 and 0.948 and 0.928.

B5: KB001 mouse Fab FASEBA VH S30T (Fab, V domains shown)
VH: B1 VH with R28S, S30T
VL: B1 VL
For the molecule B5, the OD450nm stood at 0.457 and the Ratio OD(Variant)/OD(WT) worked out at 0.906.

B6: KB001 mouse Fab FASEBA VH S30L (Fab, V domains shown)
VH: B1 VH with R28S, S30L
VL: B1 VL
As for B6, the OD450nm came out at 0.468 and the Ratio OD(Variant)/OD(WT) is 0.928.

B7: KB001 mouse Fab FASEBA VH S30Q (Fab, V domains shown)
VH: B1 VH with R28S, S30Q
VL: B1 VL
Regarding B7, the OD450nm is 0.47 and 0.483; the Ratio OD(Variant)/OD(WT) is 0.932 and 0.957.

B8: KB001 mouse Fab FASEBA VH L29P (Fab, V domains shown)
VH: B1 VH with R28S, L29P
VL: B1 VL
Consider B8, for which the OD450nm was 0.468 and the Ratio OD(Variant)/OD(WT) was 0.867.

B9: KB001 mouse Fab FASEBA VH L29V (Fab, V domains shown)
VH: B1 VH with R28S, L29V
VL: B1 VL
On to B9, for which the OD450nm is 0.446 and the Ratio OD(Variant)/OD(WT) is 0.826.

B10: KB001 mouse Fab FASEBA VH S30W (Fab, V domains shown)
VH: B1 VH with R28S, S30W
VL: B1 VL
Turning to B10, the OD450nm is 0.469 and the Ratio OD(Variant)/OD(WT) came to 0.93.

B11: KB001 mouse Fab FASEBA VH S28Y (Fab, V domains shown)
VH: B1 VH with R28Y
VL: B1 VL
On to B11, for which the OD450nm is 0.437 and the Ratio OD(Variant)/OD(WT) is 0.809.

B12: KB001 mouse Fab FASEBA VH S30F (Fab, V domains shown)
VH: B1 VH with R28S, S30F
VL: B1 VL
B12: the OD450nm stood at 0.438 and the Ratio OD(Variant)/OD(WT) was 0.868.

B13: KB001 mouse Fab FASEBA VH S30R (Fab, V domains shown)
VH: B1 VH with R28S, S30R
VL: B1 VL
With B13, the OD450nm came to 0.481 and the Ratio OD(Variant)/OD(WT) turned out to be 0.953.

B14: KB001 mouse Fab FASEBA VH S30M (Fab, V domains shown)
VH: B1 VH with R28S, S30M
VL: B1 VL
Turning to B14, the OD450nm stood at 0.437 and the Ratio OD(Variant)/OD(WT) stood at 0.866.
